Experimental data published in the RNAGym collection of RNA variant scans (doi:10.7554/elife.80360).

B1: Hammerhead Ribozyme (parent)
chain: ACCGGAUGUGCUUUCCGGUCUGAUGAGUCCGUGAGGACGAAACAG

Variants of: B1
Test: self-cleavage, relative activity (ratio to wild type); higher = more cleavage; co-transcriptional

Point of comparison: ACCGGAUGUGCUUUCCGUUCUGAUGAGUCCGUGAUGACGAAACAG [G18U G35U], self-cleavage 0.532. Against it:
- ACCGGAUGUGCUUUCCGUUCUGAUGAGUCCGUGAGGACGGAACAG [G18U A40G] — lower, 0.357
- ACCGGAUGUGCUUUCCGGACUGAUGAGUCCGUGAGGACGAAACAG [U19A] — lower, 0.391
- ACCGGAUGUGCUUUCCGCUCUGAUGAGACCGUGAGGACGAAACAG [G18C U28A] — lower, 0.415
- ACCGGAUGUGCUUUCCGCUCUGAUGAGGCCGUGAGGACGAAACAG [G18C U28G] — lower, 0.44
- ACCGGAUGUGCUUUCCGCUCUGAUGAGCCCGUGAGGACGAAACAG [G18C U28C] — lower, 0.263
- ACCGGAUGUGCUUUCCGCUCUGAUGAGUCCGUCAGGACGAAACAG [G18C G33C] — higher, 0.616
- ACCGGAUGUGCUUUCCGCUCUGAUGAGUCCGUUAGGACGAAACAG [G18C G33U] — higher, 0.708
- ACCGGAUGUGCUUUCCGCUCUGAUGAGUCCGUAAGGACGAAACAG [G18C G33A] — higher, 0.765
- ACCGGAUGUGCUUUCCGUUCGGAUGAGUCCGUGAGGACGAAACAG [G18U U21G] — lower, 0.426
- ACCGGAUGUGCUUUCCGUUCCGAUGAGUCCGUGAGGACGAAACAG [G18U U21C] — higher, 0.544
- ACCGGAUGUGCUUUCCGUUCAGAUGAGUCCGUGAGGACGAAACAG [G18U U21A] — lower, 0.381
- ACCGGAUGUGCUUUCCGUUCUGAUGAGUCUGUGAGGACGAAACAG [G18U C30U] — higher, 0.849
- ACCGGAUGUGCUUUCCGUUCUGAUGAGUCGGUGAGGACGAAACAG [G18U C30G] — lower, 0.493
- ACCGGAUGUGCUUUCCGUUCUGAUGAGUCAGUGAGGACGAAACAG [G18U C30A] — higher, 0.556
- ACCGGAUGUGCUUUCCGCUCUGAUGAGUCCGCGAGGACGAAACAG [G18C U32C] — lower, 0.446
- ACCGGAUGUGCUUUCCGCUCUGAUGAGUCCGGGAGGACGAAACAG [G18C U32G] — lower, 0.503
- ACCGGAUGUGCUUUCCGCUCUGAUGAGUCCGAGAGGACGAAACAG [G18C U32A] — higher, 0.554
- ACCGGAUGUGCUUUCCGUUCUGAUGAGUCCGUGAGGACGAAACAC [G18U G45C] — lower, 0.476
- ACCGGAUGUGCUUUCCGUUCUGAUGAGUCCGUGAGGACGAAACAA [G18U G45A] — lower, 0.379
- ACCGGAUGUGCUUUCCGUUCUGAUGAGUCCGUGAGGACGAAACAU [G18U G45U] — lower, 0.475
- ACCGGAUGUGCUUUCCGUUCUGAUGAGUCCGUGAGGACAAAACAG [G18U G39A] — lower, 0.339
- ACCGGAUGUGCUUUCCGUUCUGAUGAGUCCGUGAGGACUAAACAG [G18U G39U] — lower, 0.392
- ACCGGAUGUGCUUUCCGUUCUGAUGAGUCCGUGAGGACCAAACAG [G18U G39C] — lower, 0.32
- ACCGGAUGUGCUUUCCGCUCUGAUGAGUCCGUGAGGACAAAACAG [G18C G39A] — lower, 0.289
- ACCGGAUGUGCUUUCCGCUCUGAUGAGUCCGUGAGGACUAAACAG [G18C G39U] — lower, 0.372
- ACCGGAUGUGCUUUCCGCUCUGAUGAGUCCGUGAGGACCAAACAG [G18C G39C] — lower, 0.289
- ACCGGAUGUGCUUUCCGUUCUGAUUAGUCCGUGAGGACGAAACAG [G18U G25U] — lower, 0.324
- ACCGGAUGUGCUUUCCGUUCUGAUCAGUCCGUGAGGACGAAACAG [G18U G25C] — lower, 0.322
- ACCGGAUGUGCUUUCCGUUCUGAUAAGUCCGUGAGGACGAAACAG [G18U G25A] — lower, 0.369
- ACCGGAUGUGCUUUCCGUUCUGAUGAGUUCGUGAGGACGAAACAG [G18U C29U] — higher, 0.547
- ACCGGAUGUGCUUUCCGUUCUGAUGAGUACGUGAGGACGAAACAG [G18U C29A] — higher, 0.538
- ACCGGAUGUGCUUUCCGUUCUGAUGAGUGCGUGAGGACGAAACAG [G18U C29G] — higher, 0.575
- ACCGGAUGUGCUUUCCGCUCUGAAGAGUCCGUGAGGACGAAACAG [G18C U24A] — higher, 0.617
- ACCGGAUGUGCUUUCCGCUCUGAGGAGUCCGUGAGGACGAAACAG [G18C U24G] — lower, 0.365
- ACCGGAUGUGCUUUCCGCUCUGACGAGUCCGUGAGGACGAAACAG [G18C U24C] — lower, 0.477
- ACCGGAUGUGCUUUCCGCUCUGAUGAGUCCUUGAGGACGAAACAG [G18C G31U] — higher, 0.673
- ACCGGAUGUGCUUUCCGUUCUGAUGAGUCCGUGACGACGAAACAG [G18U G35C] — lower, 0.515
- ACCGGAUGUGCUUUCCGUUCUGAUGAGUCCGUGAAGACGAAACAG [G18U G35A] — higher, 0.555
- ACCGGAUGUGCUUUCCGUUCUGAGGAGUCCGUGAGGACGAAACAG [G18U U24G] — higher, 0.607
- ACCGGAUGUGCUUUCCGUUCUGACGAGUCCGUGAGGACGAAACAG [G18U U24C] — higher, 0.642
- ACCGGAUGUGCUUUCCGUUCUGAAGAGUCCGUGAGGACGAAACAG [G18U U24A] — higher, 0.858
- ACCGGAUGUGCUUUCCGUUCUGAUGAGUCCGUGAGGACGAAAGAG [G18U C43G] — lower, 0.373
- ACCGGAUGUGCUUUCCGUUCUGAUGAGUCCGUGAGGACGAAAUAG [G18U C43U] — lower, 0.402
- ACCGGAUGUGCUUUCCGUUCUGAUGAGUCCGUGAGGACGAAAAAG [G18U C43A] — lower, 0.286
- ACCGGAUGUGCUUUCCGUUCUGAUGAGUCCGUGGGGACGAAACAG [G18U A34G] — lower, 0.493
- ACCGGAUGUGCUUUCCGUUCUGAUGAGUCCGUGCGGACGAAACAG [G18U A34C] — lower, 0.407
- ACCGGAUGUGCUUUCCGUUCUGAUGAGUCCGUGUGGACGAAACAG [G18U A34U] — lower, 0.51
- ACCGGAUGUGCUUUCCGUUCUAAUGAGUCCGUGAGGACGAAACAG [G18U G22A] — lower, 0.344
- ACCGGAUGUGCUUUCCGUUCUUAUGAGUCCGUGAGGACGAAACAG [G18U G22U] — lower, 0.378
- ACCGGAUGUGCUUUCCGUUCUCAUGAGUCCGUGAGGACGAAACAG [G18U G22C] — lower, 0.372
- ACCGGAUGUGCUUUCCGUUCUGAUGAGUCCGUGAGGACGACACAG [G18U A41C] — lower, 0.427
- ACCGGAUGUGCUUUCCGUUCUGAUGAGUCCGUGAGGACGAUACAG [G18U A41U] — lower, 0.385
- ACCGGAUGUGCUUUCCGUUCUGAUGAGUCCGUGAGGACGAGACAG [G18U A41G] — lower, 0.375
- ACCGGAUGUGCUUUCCGCCCUGAUGAGUCCGUGAGGACGAAACAG [G18C U19C] — lower, 0.375
- ACCGGAUGUGCUUUCCGCACUGAUGAGUCCGUGAGGACGAAACAG [G18C U19A] — lower, 0.349
- ACCGGAUGUGCUUUCCGCGCUGAUGAGUCCGUGAGGACGAAACAG [G18C U19G] — lower, 0.224
